From patent US20200222503A1
One block for each substance: values may come before it.

Tests used:
[1] = molecular target: OX40-His (Example 11) (Mus musculus (Mouse)) (UniProt P47741); test: SPR, BioRad ProteOn XPR 360, His-tagged target on chip
FcRn = test: SPR
FcγR1A = test: SPR
[2] = molecular target: PD-L2-His (Example 11) (Mus musculus (Mouse)) (UniProt Q9WUL5); test: SPR, BioRad ProteOn XPR 360, His-tagged target on chip
mPD-L1-His (murine) = mPD-L1-His (murine) (UniProt Q9EP73); test: as above
[3] = molecular target: FcRn-His (Example 11) (Mus musculus (Mouse)) (UniProt Q61559); test: as above

Chain of OX40L-Fc (recombinant control protein, Example 11) (Fc fusion) (P43488 51-198): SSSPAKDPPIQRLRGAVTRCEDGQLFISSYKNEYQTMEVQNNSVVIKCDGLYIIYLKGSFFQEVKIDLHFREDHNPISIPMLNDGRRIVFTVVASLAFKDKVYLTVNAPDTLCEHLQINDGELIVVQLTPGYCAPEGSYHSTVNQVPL
Chain of PD1-Fc (recombinant control protein, Example 11) (Fc fusion) (Q02242 25-169): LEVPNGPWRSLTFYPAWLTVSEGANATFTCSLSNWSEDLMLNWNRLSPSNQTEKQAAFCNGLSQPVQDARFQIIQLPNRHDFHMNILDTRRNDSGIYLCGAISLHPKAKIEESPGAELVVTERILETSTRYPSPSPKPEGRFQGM
Chain of OX40-His (Example 11) (Mus musculus (Mouse)) (P47741 20-211 limits assumed, form in doubt): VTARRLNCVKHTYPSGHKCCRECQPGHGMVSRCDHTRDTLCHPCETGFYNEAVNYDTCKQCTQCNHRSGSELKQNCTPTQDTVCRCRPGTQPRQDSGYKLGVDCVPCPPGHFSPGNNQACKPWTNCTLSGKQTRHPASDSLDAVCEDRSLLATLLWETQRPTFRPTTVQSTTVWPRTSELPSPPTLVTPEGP
Chain of PD-L2-His (Example 11) (Mus musculus (Mouse)) (Q9WUL5 20-221 limits assumed, form in doubt): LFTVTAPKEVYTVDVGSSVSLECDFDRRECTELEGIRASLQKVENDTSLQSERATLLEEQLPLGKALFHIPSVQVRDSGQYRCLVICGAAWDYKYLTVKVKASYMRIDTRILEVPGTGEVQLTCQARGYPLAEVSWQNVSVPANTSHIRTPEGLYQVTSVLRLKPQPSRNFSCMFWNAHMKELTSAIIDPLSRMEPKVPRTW
Chain of mPD-L1-His (murine) (Q9EP73 19-238 limits assumed): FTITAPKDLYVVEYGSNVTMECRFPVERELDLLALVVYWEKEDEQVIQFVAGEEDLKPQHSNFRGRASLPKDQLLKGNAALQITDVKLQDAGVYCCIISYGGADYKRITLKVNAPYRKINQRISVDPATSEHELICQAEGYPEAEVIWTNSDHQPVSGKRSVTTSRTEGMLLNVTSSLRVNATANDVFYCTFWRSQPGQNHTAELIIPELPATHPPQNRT

- Kd [1]: 1.06 nM
- koff [1]: 0.000712 s⁻¹
- kon [1]: 674000 M⁻¹ s⁻¹
Substance: OX40L-Fc (recombinant control protein, Example 11) (Fc fusion)

- Kd (FcRn): 4.87 nM
- Kd (FcγR1A): 17.7 nM
Substance: IgG1

- Kd [2]: 23.1 nM
- koff [2]: 0.00171 s⁻¹
- kon [2]: 47900 M⁻¹ s⁻¹
- Kd (mPD-L1-His (murine)): 33.3 nM
- koff (mPD-L1-His (murine)): 0.00108 s⁻¹
- kon (mPD-L1-His (murine)): 32400 M⁻¹ s⁻¹
Substance: PD1-Fc (recombinant control protein, Example 11) (Fc fusion)

- Kd [3]: 8.08 nM
- koff [3]: 0.0242 s⁻¹
- kon [3]: 3e+06 M⁻¹ s⁻¹
Substance: IgG2A (control protein, Example 11) (antibody)
